Data taken from patent US20040191303A1, “Use of selectin-binding pregnancy proteins, liposomes, native mucin fragments and mimetic compounds for the treatment and prophylaxis inflammatory diseases, for preventing metastatic spread and for the prophylaxis of tumour diseases” (priority 2000, published 2004).

B1: Amniotic ✓-fetoprotein: α-fetoprotein from the amniotic fluid (protein, UniProt P02771 19-609, looked up)
Alpha-fetoprotein: RTLHRNEYGIASILDSYQCTAEISLADLATIFFAQFVQEATYKEVSKMVKDALTAIEKPTGDEQSSGCLENQLPAFLEELCHEKEILEKYGHSDCCSQSEEGRHNCFLAHKKPTPASIPLFQVPEPVTSCEAYEEDRETFMNKFIYEIARRHPFLYAPTILLWAARYDKIIPSCCKAENAVECFQTKAATVTKELRESSLLNQHACAVMKNFGTRTFQAITVTKLSQKFTKVNFTEIQKLVLDVAHVHEHCCRGDVLDCLQDGEKIMSYICSQQDTLSNKITECCKLTTLERGQCIIHAENDEKPEGLSPNLNRFLGDRDFNQFSSGEKNIFLASFVHEYSRRHPQLAVSVILRVAKGYQELLEKCFQTENPLECQDKGEEELQKYIQESQALAKRSCGLFQKLGEYYLQNAFLVAYTKKAPQLTSSELMAITRKMAATAATCCQLSEDKLLACGEGAADIIIGHLCIRHEMTPVNPGVGQCCTSSYANRRPCFSSLVVDETYVPPAFSDDKFIFHKDLCQAQGVALQTMKQEFLINLVKQKPQITEEQLEAVIADFSGLLEKCCQGQEQEVCFAEEGQKLISKTRAALGV
B2: Urinary ✓-fetoprotein: α-fetoprotein from urine (protein, UniProt P02771 19-609, looked up)
Alpha-fetoprotein: RTLHRNEYGIASILDSYQCTAEISLADLATIFFAQFVQEATYKEVSKMVKDALTAIEKPTGDEQSSGCLENQLPAFLEELCHEKEILEKYGHSDCCSQSEEGRHNCFLAHKKPTPASIPLFQVPEPVTSCEAYEEDRETFMNKFIYEIARRHPFLYAPTILLWAARYDKIIPSCCKAENAVECFQTKAATVTKELRESSLLNQHACAVMKNFGTRTFQAITVTKLSQKFTKVNFTEIQKLVLDVAHVHEHCCRGDVLDCLQDGEKIMSYICSQQDTLSNKITECCKLTTLERGQCIIHAENDEKPEGLSPNLNRFLGDRDFNQFSSGEKNIFLASFVHEYSRRHPQLAVSVILRVAKGYQELLEKCFQTENPLECQDKGEEELQKYIQESQALAKRSCGLFQKLGEYYLQNAFLVAYTKKAPQLTSSELMAITRKMAATAATCCQLSEDKLLACGEGAADIIIGHLCIRHEMTPVNPGVGQCCTSSYANRRPCFSSLVVDETYVPPAFSDDKFIFHKDLCQAQGVALQTMKQEFLINLVKQKPQITEEQLEAVIADFSGLLEKCCQGQEQEVCFAEEGQKLISKTRAALGV
B3: Serum ✓-fetoprotein: α-fetoprotein from the serum of pregnant women (protein, UniProt P02771 19-609, looked up)
Alpha-fetoprotein: RTLHRNEYGIASILDSYQCTAEISLADLATIFFAQFVQEATYKEVSKMVKDALTAIEKPTGDEQSSGCLENQLPAFLEELCHEKEILEKYGHSDCCSQSEEGRHNCFLAHKKPTPASIPLFQVPEPVTSCEAYEEDRETFMNKFIYEIARRHPFLYAPTILLWAARYDKIIPSCCKAENAVECFQTKAATVTKELRESSLLNQHACAVMKNFGTRTFQAITVTKLSQKFTKVNFTEIQKLVLDVAHVHEHCCRGDVLDCLQDGEKIMSYICSQQDTLSNKITECCKLTTLERGQCIIHAENDEKPEGLSPNLNRFLGDRDFNQFSSGEKNIFLASFVHEYSRRHPQLAVSVILRVAKGYQELLEKCFQTENPLECQDKGEEELQKYIQESQALAKRSCGLFQKLGEYYLQNAFLVAYTKKAPQLTSSELMAITRKMAATAATCCQLSEDKLLACGEGAADIIIGHLCIRHEMTPVNPGVGQCCTSSYANRRPCFSSLVVDETYVPPAFSDDKFIFHKDLCQAQGVALQTMKQEFLINLVKQKPQITEEQLEAVIADFSGLLEKCCQGQEQEVCFAEEGQKLISKTRAALGV
B4: Serum PP14: gestation protein pp14 from serum of pregnant women (protein, UniProt P09466 19-180, looked up)
Glycodelin: MDIPQTKQDLELPKLAGTWHSMAMATNNISLMATLKAPLRVHITSLLPTPEDNLEIVLHRWENNSCVEKKVLGEKTENPKKFKINYTVANEATLLDTDYDNFLFLCLQDTTTPIQSMMCQYLARVLVEDDEIMQGFIRAFRPLPRHLWYLLDLKQMEEPCRF
B5: Urinary PP14: gestation protein pp14 from urine of pregnant women (protein, UniProt P09466 19-180, looked up)
Glycodelin: MDIPQTKQDLELPKLAGTWHSMAMATNNISLMATLKAPLRVHITSLLPTPEDNLEIVLHRWENNSCVEKKVLGEKTENPKKFKINYTVANEATLLDTDYDNFLFLCLQDTTTPIQSMMCQYLARVLVEDDEIMQGFIRAFRPLPRHLWYLLDLKQMEEPCRF

Test system: cell adhesion
Assay: Testing of gestation proteins from various sources as adhesion blocker
Type: cell-based
Conditions: not given
Excerpt: Testing of Gestation Proteins from Various Sources as Adhesion Blocker
The trophoblast culture line has been purchased and not subjected to genetic engineering.

Question: For “Amniotic transferrin: transferrin recovered from the amniotic fluid”, which Adhesion blocking is on record?
Answer: The Adhesion blocking was “Yes”.

Question: For “Serum Transferrin: transferrin from serum”, which Adhesion blocking is on record?
Answer: The Adhesion blocking was “No”.

Question: B1 was tested. Which Adhesion blocking did it give?
Answer: The Adhesion blocking was “Yes”.

Question: With B2 as the molecule, how does the Adhesion blocking read?
Answer: Its Adhesion blocking is “No”.

Question: With B3 as the molecule, how does the Adhesion blocking read?
Answer: Its Adhesion blocking is “Yes”.

Question: Which Adhesion blocking does the source give for B4 here?
Answer: Its Adhesion blocking is “Yes”.

Question: With B5 as the molecule, how does the Adhesion blocking read?
Answer: Its Adhesion blocking is “Yes”.

Test system: activated HUVEC
Assay: Adhesion inhibition test: HepG2 hepatoma cells to IL-1β activated HUVEC
Type: cell-based, human
Conditions: HepG2 cell adhesion
Description: The adhesion test described below is used in vitro to test the active substances.
HUVECs are isolated from veins of fresh human umbilical cords, used up to the 3rd passage, and cultured to confluence in 96-well titer plates for testing. Expression on HUVEC is induced by adding 0.2 ng of IL-1β per well, reaching its maximum after 4 hours. At this point, an adhesion test/adhesion inhibition test analogous to the one for immobilized E-selectin is performed.
The IC50 values (concentration of inhibiting agent for 50% inhibition of adhesion) are indicated.

Question: Which IC50 does the source give for sialyl-Lewis x [sLe^x] here?
Answer: The IC50 was 2300 µM.
